Data on 15 molecules can be found in patent publication US20100272723A1 (Xencor, published 2010).

The labels stand for the following.
T1: human CD19 (human, UniProt P15391 20-556)
T1 construct: also called B-cell surface antigen B4; B-cell antigen CD19
T1 sequence: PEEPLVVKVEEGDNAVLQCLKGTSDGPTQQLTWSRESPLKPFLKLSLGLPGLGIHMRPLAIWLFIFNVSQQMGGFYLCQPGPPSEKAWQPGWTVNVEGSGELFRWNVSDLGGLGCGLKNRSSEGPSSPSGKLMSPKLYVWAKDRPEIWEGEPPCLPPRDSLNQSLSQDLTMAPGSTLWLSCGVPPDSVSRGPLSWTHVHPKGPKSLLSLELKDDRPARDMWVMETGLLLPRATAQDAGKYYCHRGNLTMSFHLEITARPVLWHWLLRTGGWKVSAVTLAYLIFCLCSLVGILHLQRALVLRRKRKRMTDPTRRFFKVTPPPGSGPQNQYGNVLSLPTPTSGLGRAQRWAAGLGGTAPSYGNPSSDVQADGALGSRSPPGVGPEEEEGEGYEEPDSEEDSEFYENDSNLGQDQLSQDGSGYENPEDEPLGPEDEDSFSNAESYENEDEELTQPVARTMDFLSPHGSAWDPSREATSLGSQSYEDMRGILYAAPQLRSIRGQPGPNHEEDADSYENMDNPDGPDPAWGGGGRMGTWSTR

B1: H1.203 / L1.161 (antibody, V domains shown)
VH: EVQLVESGGGLVKPGGSLKLSCAASGYTFTSYVMHWVRQAPGKGLEWIGYINPYNSGTEYNEKFQGRVTISSDKSISTAYMELSSLRSEDTAMYYCARGTYYYGTRVFDYWGQGTLVTVSS
VL: DIVMTQSPATLSLSPGERATLSCRSSKSLQNVNSNTYLYWFQQKPGQSPQLLIYRMSNLNSGVPDRFSGSGSGTEFTLTISSLEPEDFAVYYCMQHLEYPITFGAGTKLEIK
notes: vs H1L1 (Kabat): VH D55S/K58E/S100cT; VL L27cQ/S27eV/G29S/A55N/F96I; also called 4G7 H1.203_L1.161
B2: H1.202 / L1.161 (antibody, V domains shown)
VH: EVQLVESGGGLVKPGGSLKLSCAASGYTFTSYVMHWVRQAPGKGLEWIGYINPYNEGTKYNEKFQGRVTISSDKSISTAYMELSSLRSEDTAMYYCARGTYYYGTRVFDYWGQGTLVTVSS
VL: DIVMTQSPATLSLSPGERATLSCRSSKSLQNVNSNTYLYWFQQKPGQSPQLLIYRMSNLNSGVPDRFSGSGSGTEFTLTISSLEPEDFAVYYCMQHLEYPITFGAGTKLEIK
notes: vs H1L1 (Kabat): VH D55E/S100cT; VL L27cQ/S27eV/G29S/A55N/F96I; also called 4G7 H1.202_L1.161
B3: H1.204 / L1.160 (antibody, V domains shown)
VH: EVQLVESGGGLVKPGGSLKLSCAASGYTFTSYVMHWVRQAPGKGLEWIGYINPYNEGTEYNEKFQGRVTISSDKSISTAYMELSSLRSEDTAMYYCARGTYYYGTRVFDYWGQGTLVTVSS
VL: DIVMTQSPATLSLSPGERATLSCRSSKSLQNVNANTYLYWFQQKPGQSPQLLIYRMSNLNSGVPDRFSGSGSGTEFTLTISSLEPEDFAVYYCMQHLEYPITFGAGTKLEIK
notes: vs H1L1 (Kabat): VH D55E/K58E/S100cT; VL L27cQ/S27eV/G29A/A55N/F96I; also called 4G7 H1.204_L1.160
B4: H1.202 / L1.160 (antibody, V domains shown)
VH: EVQLVESGGGLVKPGGSLKLSCAASGYTFTSYVMHWVRQAPGKGLEWIGYINPYNEGTKYNEKFQGRVTISSDKSISTAYMELSSLRSEDTAMYYCARGTYYYGTRVFDYWGQGTLVTVSS
VL: DIVMTQSPATLSLSPGERATLSCRSSKSLQNVNANTYLYWFQQKPGQSPQLLIYRMSNLNSGVPDRFSGSGSGTEFTLTISSLEPEDFAVYYCMQHLEYPITFGAGTKLEIK
notes: vs H1L1 (Kabat): VH D55E/S100cT; VL L27cQ/S27eV/G29A/A55N/F96I; also called 4G7 H1.202_L1.160
B5: H1.203 / L1.160 (antibody, V domains shown)
VH: EVQLVESGGGLVKPGGSLKLSCAASGYTFTSYVMHWVRQAPGKGLEWIGYINPYNSGTEYNEKFQGRVTISSDKSISTAYMELSSLRSEDTAMYYCARGTYYYGTRVFDYWGQGTLVTVSS
VL: DIVMTQSPATLSLSPGERATLSCRSSKSLQNVNANTYLYWFQQKPGQSPQLLIYRMSNLNSGVPDRFSGSGSGTEFTLTISSLEPEDFAVYYCMQHLEYPITFGAGTKLEIK
notes: vs H1L1 (Kabat): VH D55S/K58E/S100cT; VL L27cQ/S27eV/G29A/A55N/F96I; also called 4G7 H1.203_L1.160
B6: H1.201 / L1.161 (antibody, V domains shown)
VH: EVQLVESGGGLVKPGGSLKLSCAASGYTFTSYVMHWVRQAPGKGLEWIGYINPYNSGTKYNEKFQGRVTISSDKSISTAYMELSSLRSEDTAMYYCARGTYYYGTRVFDYWGQGTLVTVSS
VL: DIVMTQSPATLSLSPGERATLSCRSSKSLQNVNSNTYLYWFQQKPGQSPQLLIYRMSNLNSGVPDRFSGSGSGTEFTLTISSLEPEDFAVYYCMQHLEYPITFGAGTKLEIK
notes: vs H1L1 (Kabat): VH D55S/S100cT; VL L27cQ/S27eV/G29S/A55N/F96I; also called 4G7 H1.201_L1.161
B7: H1.203 / L1.155 (antibody, V domains shown)
VH: EVQLVESGGGLVKPGGSLKLSCAASGYTFTSYVMHWVRQAPGKGLEWIGYINPYNSGTEYNEKFQGRVTISSDKSISTAYMELSSLRSEDTAMYYCARGTYYYGTRVFDYWGQGTLVTVSS
VL: DIVMTQSPATLSLSPGERATLSCRSSKSLQNVNGNTYLYWFQQKPGQSPQLLIYRMSNLNSGVPDRFSGSGSGTEFTLTISSLEPEDFAVYYCMQHLEYPITFGAGTKLEIK
notes: vs H1L1 (Kabat): VH D55S/K58E/S100cT; VL L27cQ/S27eV/A55N/F96I; also called 4G7 H1.203_L1.155
B8: H1 / L1.3 (antibody, V domains shown)
VH: EVQLVESGGGLVKPGGSLKLSCAASGYTFTSYVMHWVRQAPGKGLEWIGYINPYNDGTKYNEKFQGRVTISSDKSISTAYMELSSLRSEDTAMYYCARGTYYYGSRVFDYWGQGTLVTVSS
VL: DIVMTQSPATLSLSPGERATLSCRSSKSLLNSNGNTYLYWFQQKPGQSPQLLIYRMQNLASGVPDRFSGSGSGTEFTLTISSLEPEDFAVYYCMQHLEYPFTFGAGTKLEIK
notes: vs H1L1 (Kabat): VL S52Q; also called 4G7 H1_L1.3
B9: H1 / L1.54 (antibody, V domains shown)
VH: EVQLVESGGGLVKPGGSLKLSCAASGYTFTSYVMHWVRQAPGKGLEWIGYINPYNDGTKYNEKFQGRVTISSDKSISTAYMELSSLRSEDTAMYYCARGTYYYGSRVFDYWGQGTLVTVSS
VL: DIVMTQSPATLSLSPGERATLSCRSSKSLLNSNGNTYLYWFQQKPGQSPQLLIYRMSGLASGVPDRFSGSGSGTEFTLTISSLEPEDFAVYYCMQHLEYPFTFGAGTKLEIK
notes: vs H1L1 (Kabat): VL N53G; also called 4G7 H1_L1.54
B10: H1 / L1.46 (antibody, V domains shown)
VH: EVQLVESGGGLVKPGGSLKLSCAASGYTFTSYVMHWVRQAPGKGLEWIGYINPYNDGTKYNEKFQGRVTISSDKSISTAYMELSSLRSEDTAMYYCARGTYYYGSRVFDYWGQGTLVTVSS
VL: DIVMTQSPATLSLSPGERATLSCRSSKSLLNSNGNTYLYWFQQKPGQSPQLLIYRMSHLASGVPDRFSGSGSGTEFTLTISSLEPEDFAVYYCMQHLEYPFTFGAGTKLEIK
notes: vs H1L1 (Kabat): VL N53H; also called 4G7 H1_L1.46
B11: H1 / L1.17 (antibody, V domains shown)
VH: EVQLVESGGGLVKPGGSLKLSCAASGYTFTSYVMHWVRQAPGKGLEWIGYINPYNDGTKYNEKFQGRVTISSDKSISTAYMELSSLRSEDTAMYYCARGTYYYGSRVFDYWGQGTLVTVSS
VL: DIVMTQSPATLSLSPGERATLSCRSSKSLLNSNGNTYLYWFQQKPGQSPQLLIYRMSNLASGVPDRFSGSGSGTEFTLTISSLEPEDFAVYYCMQHLTYPFTFGAGTKLEIK
notes: vs H1L1 (Kabat): VL E93T; also called 4G7 H1_L1.17
B12: H1 / L1.32 (antibody, V domains shown)
VH: EVQLVESGGGLVKPGGSLKLSCAASGYTFTSYVMHWVRQAPGKGLEWIGYINPYNDGTKYNEKFQGRVTISSDKSISTAYMELSSLRSEDTAMYYCARGTYYYGSRVFDYWGQGTLVTVSS
VL: DIVMTQSPATLSLSPGERATLSCRSSKSLLNVNGNTYLYWFQQKPGQSPQLLIYRMSNLASGVPDRFSGSGSGTEFTLTISSLEPEDFAVYYCMQHLEYPFTFGAGTKLEIK
notes: vs H1L1 (Kabat): VL S27eV; also called 4G7 H1_L1.32
B13: H1 / L1.26 (antibody, V domains shown)
VH: EVQLVESGGGLVKPGGSLKLSCAASGYTFTSYVMHWVRQAPGKGLEWIGYINPYNDGTKYNEKFQGRVTISSDKSISTAYMELSSLRSEDTAMYYCARGTYYYGSRVFDYWGQGTLVTVSS
VL: DIVMTQSPATLSLSPGERATLSCRSSKSLQNSNGNTYLYWFQQKPGQSPQLLIYRMSNLASGVPDRFSGSGSGTEFTLTISSLEPEDFAVYYCMQHLEYPFTFGAGTKLEIK
notes: vs H1L1 (Kabat): VL L27cQ; also called 4G7 H1_L1.26
B14: H1 / L1.9 (antibody, V domains shown)
VH: EVQLVESGGGLVKPGGSLKLSCAASGYTFTSYVMHWVRQAPGKGLEWIGYINPYNDGTKYNEKFQGRVTISSDKSISTAYMELSSLRSEDTAMYYCARGTYYYGSRVFDYWGQGTLVTVSS
VL: DIVMTQSPATLSLSPGERATLSCRSSKSLLNSNGNTYLYWFQQKPGQSPQLLIYRMLNLASGVPDRFSGSGSGTEFTLTISSLEPEDFAVYYCMQHLEYPFTFGAGTKLEIK
notes: vs H1L1 (Kabat): VL S52L; also called 4G7 H1_L1.9
B15: H1 / L1.8 (antibody, V domains shown)
VH: EVQLVESGGGLVKPGGSLKLSCAASGYTFTSYVMHWVRQAPGKGLEWIGYINPYNDGTKYNEKFQGRVTISSDKSISTAYMELSSLRSEDTAMYYCARGTYYYGSRVFDYWGQGTLVTVSS
VL: DIVMTQSPATLSLSPGERATLSCRSSKSLLNSNGNTYLYWFQQKPGQSPQLLIYRMKNLASGVPDRFSGSGSGTEFTLTISSLEPEDFAVYYCMQHLEYPFTFGAGTKLEIK
notes: vs H1L1 (Kabat): VL S52K; also called 4G7 H1_L1.8

In the first assay the target is T1, human CD19. Kind of assay: binding affinity relative to the parent H1L1 mAb (Example 5); assay and format not named on the sheet.
With B1, the Fold change binding was determined as 2.92 fold.

As for B2, the Fold change binding was 4.3 fold.

For the molecule B3, the Fold change binding worked out at 3.46 fold.

Regarding B4, the Fold change binding was determined as 3.96 fold.

For the molecule B5, the Fold change binding is 1.76 fold.

Take B6: the Fold change binding stood at 3.89 fold.

In the case of B7, the Fold change binding stood at 4.73 fold.

For another assay, the target named is T1, human CD19. The assay is described as above. The source holds these as a separate data set.
Consider B8, for which the Fold change binding was determined as 1.85 fold.

In the case of B9, the Fold change binding amounted to 1.5 fold.

Take B10: the Fold change binding was found to be 1.75 fold.

As for B11, the Fold change binding turned out to be 1.57 fold.

For B12, the Fold change binding came to 2.61 fold.

For the molecule B13, the Fold change binding is 1.73 fold.

Regarding B14, the Fold change binding came to 1.84 fold.

With B15, the Fold change binding came out at 2.18 fold.
